Patent US20150140013A1 (GENERAL HOSPITAL, published 2015)

Target: T1, RAPTOR (UniProt Q8N122 1-1335)
T1 construct: Endogenous protein in lysates of human cancer cell lines
Test: co-immunoprecipitation with anti-FAK from whole-cell lysates of HCT116 and MCF7 cells in mitosis, immunoblot with anti-RAPTOR
Procedure: The immunoprecipitates were washed and resolved by SDS-PAGE. For western blots: primary antibody: RICTOR, mTOR (Cell Signaling), Raptor, FAK, β1-integrin, TTC3 (AbCam).
Standard protocols were used for SDS-PAGE electrophoresis and the following primary antibodies: α-RICTOR, α-mTOR, Phospho-AKT-Ser473 (D9E; Cell Signaling Technology) and α-RAPTOR, α-FAK, α-β1-integrin, α-TTC3, Pan-AKT, and GAPDH (Abcam). For immunoprecipitation studies, cells were synchronized with 200 ng/mL of nocodazole for 12 hours and then released for 2 hours. Cells were rinsed with PBS, fixed with 0.37% formalde-hyde, and quenched with 0.25 mol/L glycine. Cell lysates were prepared in lysis buffer [1% Triton X-100, 150 mmol/L NaCl, 3 mmol/L MgCl, 40 mmol/L HEPES (pH 7.5), 50 mmol/L NaF, EDTA-free protease inhibitor and phosphatase inhibitor (Roche)] and centrifuged at 14,000×g for 10 minutes. Supernatant (250 μg) was incubated with the indicated antibodies [α-FAK (AbCam), α-RICTOR (Santa Cruz Biotechnology)], for 4 hours at 4° C. with rotation and then with 50 μL of a 50% slurry of protein G-sepharose (Roche) for 1 hour Immunoprecipitates were washed and resolved by SDS-PAGE electrophoresis.
To identify an upstream regulator that might activate mTORC2 signaling during asymmetric division, an immunoprecipitation approach was used to identify proteins that physically interact with the mTORC2 complex during mitosis. […]

T1 sequence (Q8N122 whole entry): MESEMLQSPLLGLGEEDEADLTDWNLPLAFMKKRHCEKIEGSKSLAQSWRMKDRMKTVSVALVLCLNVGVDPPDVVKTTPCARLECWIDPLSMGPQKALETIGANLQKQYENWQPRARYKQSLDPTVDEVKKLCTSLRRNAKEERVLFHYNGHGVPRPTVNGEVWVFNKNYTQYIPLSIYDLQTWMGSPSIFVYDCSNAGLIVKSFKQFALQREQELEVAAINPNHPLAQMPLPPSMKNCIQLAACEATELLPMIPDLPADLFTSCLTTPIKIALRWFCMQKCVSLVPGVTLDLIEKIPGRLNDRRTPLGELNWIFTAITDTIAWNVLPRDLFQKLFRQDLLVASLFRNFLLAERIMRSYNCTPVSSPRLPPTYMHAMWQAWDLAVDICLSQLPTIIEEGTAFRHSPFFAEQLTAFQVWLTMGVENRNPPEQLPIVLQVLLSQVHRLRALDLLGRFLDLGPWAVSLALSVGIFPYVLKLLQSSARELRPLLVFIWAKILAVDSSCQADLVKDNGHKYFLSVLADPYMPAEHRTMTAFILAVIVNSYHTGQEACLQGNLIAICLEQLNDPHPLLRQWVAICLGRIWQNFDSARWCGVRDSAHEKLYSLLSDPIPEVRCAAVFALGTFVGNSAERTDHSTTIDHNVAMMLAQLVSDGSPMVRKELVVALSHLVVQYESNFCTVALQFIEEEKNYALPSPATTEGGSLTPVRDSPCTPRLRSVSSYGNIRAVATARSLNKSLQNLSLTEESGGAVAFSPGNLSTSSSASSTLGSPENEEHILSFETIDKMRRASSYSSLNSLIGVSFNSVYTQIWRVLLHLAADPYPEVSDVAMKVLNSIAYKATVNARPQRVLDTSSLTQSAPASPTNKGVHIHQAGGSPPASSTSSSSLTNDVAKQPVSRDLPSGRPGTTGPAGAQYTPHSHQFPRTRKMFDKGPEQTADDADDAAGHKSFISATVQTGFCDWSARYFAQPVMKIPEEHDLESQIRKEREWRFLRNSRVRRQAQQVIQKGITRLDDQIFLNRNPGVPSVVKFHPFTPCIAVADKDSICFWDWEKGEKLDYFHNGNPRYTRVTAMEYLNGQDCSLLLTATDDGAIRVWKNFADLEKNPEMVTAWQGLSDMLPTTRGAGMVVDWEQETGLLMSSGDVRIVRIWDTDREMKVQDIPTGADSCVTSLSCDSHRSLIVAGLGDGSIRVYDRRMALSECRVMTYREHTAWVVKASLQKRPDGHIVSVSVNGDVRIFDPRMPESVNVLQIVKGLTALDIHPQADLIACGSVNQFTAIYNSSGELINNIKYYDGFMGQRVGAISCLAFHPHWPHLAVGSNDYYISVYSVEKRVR

B1: focal adhesion kinase (FAK) (enzyme, human, UniProt Q05397 2-1052, looked up)
chain: AAAYLDPNLNHTPNSSTKTHLGTGMERSPGAMERVLKVFHYFESNSEPTTWASIIRHGDATDVRGIIQKIVDSHKVKHVACYGFRLSHLRSEEVHWLHVDMGVSSVREKYELAHPPEEWKYELRIRYLPKGFLNQFTEDKPTLNFFYQQVKSDYMLEIADQVDQEIALKLGCLEIRRSYWEMRGNALEKKSNYEVLEKDVGLKRFFPKSLLDSVKAKTLRKLIQQTFRQFANLNREESILKFFEILSPVYRFDKECFKCALGSSWIISVELAIGPEEGISYLTDKGCNPTHLADFTQVQTIQYSNSEDKDRKGMLQLKIAGAPEPLTVTAPSLTIAENMADLIDGYCRLVNGTSQSFIIRPQKEGERALPSIPKLANSEKQGMRTHAVSVSETDDYAEIIDEEDTYTMPSTRDYEIQRERIELGRCIGEGQFGDVHQGIYMSPENPALAVAIKTCKNCTSDSVREKFLQEALTMRQFDHPHIVKLIGVITENPVWIIMELCTLGELRSFLQVRKYSLDLASLILYAYQLSTALAYLESKRFVHRDIAARNVLVSSNDCVKLGDFGLSRYMEDSTYYKASKGKLPIKWMAPESINFRRFTSASDVWMFGVCMWEILMHGVKPFQGVKNNDVIGRIENGERLPMPPNCPPTLYSLMTKCWAYDPSRRPRFTELKAQLSTILEEEKAQQEERMRMESRRQATVSWDSGGSDEAPPKPSRPGYPSPRSSEGFYPSPQHMVQTNHYQVSGYPGSHGITAMAGSIYPGQASLLDQTDSWNHRPQEIAMWQPNVEDSTVLDLRGIGQVLPTHLMEERLIRQQQEMEEDQRWLEKEERFLKPDVRLSRGSIDREDGSLQGPIGNQHIYQPVGKPDPAAPPKKPPRPGAPGHLGSLASLSSPADSYNEGVKLQPQEISPPPTANLDRSNDKVYENVTGLVKAVIEMSSKIQPAPPEEYVPMVKEVGLALRTLLATVDETIPLLPASTHREIEMAQKLLNSDLGELINKMKLAQQYVMTSLQQEYKKQMLTAAHALAVDAKNLLDVIDQARLKMLGQTRPH
notes: Endogenous protein of the human cancer cell lines HCT116 and MCF7; lysates of formaldehyde-fixed cells were used for immunoprecipitation; also called PTK2
binding result: no binding
